Measured values from paper doi:10.1101/2021.03.16.435520 (bioRxiv, 2021).

Biological target: the molecule itself
Assay: cross-linking

B1: IRE1-KR-R887A, unphosphorylated (domain or fragment)
chain: GSSPSLEQDDGDEETSVVIVGKISFCPKDVLGHGAEGTIVYRGMFDNRDVAVKRILPECFSFADREVQLLRESDEHPNVIRYFCTEKDRQFQYIAIELCAATLQEYVEQKDFAHLGLEPITLLQQTTSGLAHLHSLNIVHRDLKPHNILISMPNAHGKIKAMISDFGLCKKLAVGRHSFSRRSGVPGTEGWIAPEMLSEDCKENPTYTVDIFSAGCVFYYVISEGSHPFGKSLQRQANILLGACSLDCLHPEKHEDVIARELIEKMIAMDPQKRPSAKHVLKHPFFWSLEKQLQFFQDVSDRIEKESLDGPIVKQLERGGRAVVKMDWRENITVPLQTDLAKFRTYKGGSVRDLLRAMRNKKHHYRELPAEVRETLGSLPDDFVCYFTSRFPHLLAHTYRAMELCSHERLFQPYYFHEPPEPQPPVTPDAL
stoichiometry N: 2
